The Kd is the equilibrium constant for the complex coming apart. As a reminder, the Ki is the dissociation constant of the complex between target and ligand, obtained from inhibition or displacement. Read a low Ki as a stronger hold on the target.

Results on two molecules are retold here after patent publication US10293024 (dated 2019).

The target of one assay is 6His-MAP kinase p38α (human). The assay can be described thus: other, NMR titration 298K.
Assay [1] deals with T1, MAP kinase p38α (OH-p38α, non-phosphorylated) (human). The assay can be described thus: SPR, inhibition in solution. (In general: In SPR one partner is held on a chip, and binding of the other changes the refractive index at the surface.)
T1 sequence (chain, as listed by the source): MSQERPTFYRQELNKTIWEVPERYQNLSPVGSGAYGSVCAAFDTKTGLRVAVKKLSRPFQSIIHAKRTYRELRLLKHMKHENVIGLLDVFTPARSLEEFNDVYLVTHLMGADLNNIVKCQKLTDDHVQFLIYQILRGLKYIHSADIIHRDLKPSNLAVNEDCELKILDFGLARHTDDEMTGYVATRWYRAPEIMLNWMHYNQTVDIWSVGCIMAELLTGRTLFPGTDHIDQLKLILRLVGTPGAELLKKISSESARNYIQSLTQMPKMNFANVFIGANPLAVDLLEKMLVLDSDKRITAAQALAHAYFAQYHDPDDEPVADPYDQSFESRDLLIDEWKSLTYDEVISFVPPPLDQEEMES
Assay [2] deals with T1, MAP kinase p38α (OH-p38α, …). The assay can be described thus: other, biochemical kinase assay.

Sequence of 6His-MAP kinase p38α (human) (chain, as listed by the source): as above

As for HKSRALLIFQKIMWLRRQ [BB2702], the Kd in the assay with 6His-MAP kinase p38α was less than 1000 nM; in assay [1], 25 nM. The molecule also registered a Ki in assay [2] of 7 nM.
RKPDLRVVIPPSS [MEF2A peptide] came in with a Kd in the assay with 6His-MAP kinase p38α of approximately 250000 nM.
